Assay results reported in patent publication US20200131489, “ENGINEERED MEGANUCLEASES SPECIFIC FOR RECOGNITION SEQUENCES IN THE PCSK9 GENE” (Precision BioSciences, Inc., published 2020).

What was measured:
Experiment in all cases: cell_activity; HEK293 mRNA electroporation, 48 h, mock 0.40%
Conditions in all cases: tags: N-terminal SV40 NLS
[1] = target: T1, PCS 7-8L.261 (synthetic (I-CreI derived, …))
T1 chain: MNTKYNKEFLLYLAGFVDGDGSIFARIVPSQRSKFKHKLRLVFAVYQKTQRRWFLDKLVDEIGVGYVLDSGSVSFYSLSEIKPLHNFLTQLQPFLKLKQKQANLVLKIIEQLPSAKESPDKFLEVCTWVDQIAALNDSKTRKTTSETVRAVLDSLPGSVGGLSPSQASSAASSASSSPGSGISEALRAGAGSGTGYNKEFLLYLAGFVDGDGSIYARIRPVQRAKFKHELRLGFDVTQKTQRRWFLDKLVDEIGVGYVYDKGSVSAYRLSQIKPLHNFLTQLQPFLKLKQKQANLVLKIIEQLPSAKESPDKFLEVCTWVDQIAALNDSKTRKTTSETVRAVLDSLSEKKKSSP
Description: (§1) In order to directly observe insertions or deletions at the intended PCS 7-8 meganuclease target site, a deep sequencing protocol was used. 2e⁶ HEK 293 cells were electroporated with 5 ug of PCS 7-8 meganuclease mRNA using a BioRad Gene Pulser Xcell according to the manufacturer's instructions. A mock electroporation was also performed with no mRNA. At 48 hours post-transfection, genomic DNA (gDNA) was harvested from cells. The PCS 7-8 locus was amplified by PCR using primers that flank the PCS 7-8 recognition sequence. This amplicon was run on an agarose gel for visual confirmation, extracted using a Macherey-Nagel Nucleospin Gel and PCR Clean-up kit, and sequencing libraries were prepared using the NEBNext Ultra II DNA Library Kit for Illumina from New England Biolabs. The paired-end sequencing libraries were read on an Illumina Miseq DNA sequencer. Sequencing data was analyzed using custom scripts. Reads with start or end points not within 25 bp of the full-length amplicon were removed. The percent of reads with indels was calculated by dividing the number of full-length reads having an indel that incorporated at least one of the middle 8 bp of the recognition sequence by the total number of full-length reads.

[2] = target: T2, PCS 7-8L.204 (synthetic (I-CreI derived, …))
T2 chain: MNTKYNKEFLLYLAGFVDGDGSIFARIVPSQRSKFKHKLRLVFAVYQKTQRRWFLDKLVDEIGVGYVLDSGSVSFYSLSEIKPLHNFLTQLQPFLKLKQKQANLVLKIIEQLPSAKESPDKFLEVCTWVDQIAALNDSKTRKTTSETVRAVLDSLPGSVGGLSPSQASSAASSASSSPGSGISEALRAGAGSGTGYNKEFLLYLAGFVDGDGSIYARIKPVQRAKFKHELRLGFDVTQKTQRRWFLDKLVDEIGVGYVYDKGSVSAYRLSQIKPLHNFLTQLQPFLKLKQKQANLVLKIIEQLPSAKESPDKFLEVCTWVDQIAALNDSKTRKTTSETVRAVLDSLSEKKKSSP
Description: as §1

[3] = target: T3, PCS 7-8L.209 (synthetic (I-CreI derived, …))
T3 chain: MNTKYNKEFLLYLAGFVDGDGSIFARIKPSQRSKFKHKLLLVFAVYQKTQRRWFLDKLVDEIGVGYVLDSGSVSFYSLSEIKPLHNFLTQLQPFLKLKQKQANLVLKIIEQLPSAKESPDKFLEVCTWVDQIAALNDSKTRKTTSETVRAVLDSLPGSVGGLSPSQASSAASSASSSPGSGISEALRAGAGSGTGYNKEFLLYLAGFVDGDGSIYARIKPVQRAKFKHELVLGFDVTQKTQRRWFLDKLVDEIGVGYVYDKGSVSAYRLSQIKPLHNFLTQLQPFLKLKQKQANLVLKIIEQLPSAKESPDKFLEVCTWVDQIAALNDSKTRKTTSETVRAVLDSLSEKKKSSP
Description: as §1

[4] = target: T4, PCS 7-8L.262 (synthetic (I-CreI derived, …))
T4 chain: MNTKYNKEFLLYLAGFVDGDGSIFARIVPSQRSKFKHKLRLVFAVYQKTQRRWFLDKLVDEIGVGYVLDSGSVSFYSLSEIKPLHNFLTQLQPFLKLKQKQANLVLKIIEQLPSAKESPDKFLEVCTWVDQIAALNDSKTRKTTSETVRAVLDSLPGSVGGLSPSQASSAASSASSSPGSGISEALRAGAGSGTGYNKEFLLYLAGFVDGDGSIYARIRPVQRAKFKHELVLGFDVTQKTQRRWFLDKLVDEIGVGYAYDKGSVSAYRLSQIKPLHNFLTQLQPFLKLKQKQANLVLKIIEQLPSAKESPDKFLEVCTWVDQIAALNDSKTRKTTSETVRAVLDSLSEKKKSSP
Description: as §1

[5] = target: T5, PCS 7-8L.268 (synthetic (I-CreI derived, …))
T5 chain: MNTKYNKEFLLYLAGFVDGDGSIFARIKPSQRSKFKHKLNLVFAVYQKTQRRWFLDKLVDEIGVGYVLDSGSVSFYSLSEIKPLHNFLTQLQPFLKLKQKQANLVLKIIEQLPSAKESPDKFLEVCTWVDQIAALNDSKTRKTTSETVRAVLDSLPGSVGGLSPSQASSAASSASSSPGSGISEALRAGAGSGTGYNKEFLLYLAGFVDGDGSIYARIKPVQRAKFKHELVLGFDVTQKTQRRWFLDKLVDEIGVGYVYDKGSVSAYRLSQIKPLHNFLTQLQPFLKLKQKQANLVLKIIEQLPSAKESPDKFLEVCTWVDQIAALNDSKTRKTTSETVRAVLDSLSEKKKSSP
Description: as §1

B1: PCS 7-8 recognition sequence (dsDNA)
DNA 1: TGGACCTCTTTGCCCCAGGGGA
DNA 2: TCCCCTGGGGCAAAGAGGTCCA
activity [1]: 55.4 % indels | activity [2]: 58.4 % indels | activity [3]: 53.2 % indels | activity [4]: 53.5 % indels | activity [5]: 52.5 % indels
